Laboratory results: article PMC10786891, “Massively parallel profiling of RNA-targeting CRISPR-Cas13d”

T1: EsCas13d, nuclease-dead (Eubacterium siraeum, UniProt B0MS50, R295A;H300A;R849A;H854A)
T1 sequence: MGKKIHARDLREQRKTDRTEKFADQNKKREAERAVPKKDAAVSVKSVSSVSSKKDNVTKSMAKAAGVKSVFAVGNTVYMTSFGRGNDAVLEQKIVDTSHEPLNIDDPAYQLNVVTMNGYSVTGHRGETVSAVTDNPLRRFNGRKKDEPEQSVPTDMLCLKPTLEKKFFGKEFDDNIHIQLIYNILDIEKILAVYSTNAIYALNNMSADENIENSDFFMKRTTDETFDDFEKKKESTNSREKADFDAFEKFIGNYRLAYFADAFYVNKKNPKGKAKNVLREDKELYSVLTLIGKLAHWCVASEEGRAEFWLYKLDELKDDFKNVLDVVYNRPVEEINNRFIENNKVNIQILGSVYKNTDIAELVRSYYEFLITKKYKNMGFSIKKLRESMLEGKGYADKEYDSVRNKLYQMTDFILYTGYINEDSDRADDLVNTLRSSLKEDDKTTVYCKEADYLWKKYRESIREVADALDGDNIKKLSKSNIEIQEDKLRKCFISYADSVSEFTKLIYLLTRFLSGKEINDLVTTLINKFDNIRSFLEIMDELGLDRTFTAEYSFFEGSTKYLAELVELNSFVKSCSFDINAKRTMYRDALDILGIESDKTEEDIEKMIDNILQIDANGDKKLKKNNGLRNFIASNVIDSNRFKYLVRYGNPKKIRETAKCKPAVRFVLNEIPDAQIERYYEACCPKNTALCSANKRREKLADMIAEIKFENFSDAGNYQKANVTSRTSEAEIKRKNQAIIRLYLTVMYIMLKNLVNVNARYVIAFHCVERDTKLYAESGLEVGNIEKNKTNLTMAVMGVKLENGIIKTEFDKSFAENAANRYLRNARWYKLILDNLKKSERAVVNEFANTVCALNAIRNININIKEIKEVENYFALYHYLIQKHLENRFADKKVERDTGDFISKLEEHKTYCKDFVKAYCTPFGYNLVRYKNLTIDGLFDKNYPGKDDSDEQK


Biological target: T1, EsCas13d, nuclease-dead
Test: crRNA (strand 1, pre-loaded); Mg2+; 40 mM Tris-HCl pH 7.5, 150 mM NaCl, 6 mM MgCl2, 1 mM DTT, 0.1% Tween-20, 0.2 mg/ml BSA; 25 C; 10 min per concentration, then washed
Details: tags: His6-TwinStrep-SUMO cleaved; N-terminal SNAP kept (SNAP-Surface 488); label: 3' end held by stalled T7 RNA polymerase

Row | Binder | Kd
1 | target 1 MT 5'PFS CAG 3'PFS UCU (mixed) RNA 1: CACCCGUGCAAAAAUGCAGGGGUCUAAAACUGAGCGGAUAACCUCUCUAUGG RNA 2: GGGAAUGGAUCCACAUCUACGAAUUCCAGCCAUAGAGAGGUUAUCCGCUCAUCUAGAUCGGAAGAGCACACGU | 19 ± 7 nM
2 | target 1 MT 5'PFS GGC 3'PFS ACC (mixed) RNA 1: CACCCGUGCAAAAAUGCAGGGGUCUAAAACUGAGCGGAUAACCUCUCUAUGG RNA 2: GGGAAUGGAUCCACAUCUACGAAUUCGGCCCAUAGAGAGGUUAUCCGCUCAACCAGAUCGGAAGAGCACACGU | 24.3 ± 5.25 nM
3 | target 1 MT 5'PFS GAG 3'PFS UUG (mixed) RNA 1: CACCCGUGCAAAAAUGCAGGGGUCUAAAACUGAGCGGAUAACCUCUCUAUGG RNA 2: GGGAAUGGAUCCACAUCUACGAAUUCGAGCCAUAGAGAGGUUAUCCGCUCAUUGAGAUCGGAAGAGCACACGU | 9.9 ± 1.85 nM
4 | target 1 MT 5'PFS CAG 3'PFS AUA (mixed) RNA 1: CACCCGUGCAAAAAUGCAGGGGUCUAAAACUGAGCGGAUAACCUCUCUAUGG RNA 2: GGGAAUGGAUCCACAUCUACGAAUUCCAGCCAUAGAGAGGUUAUCCGCUCAAUAAGAUCGGAAGAGCACACGU | 29 ± 13.5 nM
5 | target 1 MT 5'PFS GAG 3'PFS UUU (mixed) RNA 1: CACCCGUGCAAAAAUGCAGGGGUCUAAAACUGAGCGGAUAACCUCUCUAUGG RNA 2: GGGAAUGGAUCCACAUCUACGAAUUCGAGCCAUAGAGAGGUUAUCCGCUCAUUUAGAUCGGAAGAGCACACGU | 23 ± 5.5 nM
6 | target 1 MT 5'PFS GAG 3'PFS CUA (mixed) RNA 1: CACCCGUGCAAAAAUGCAGGGGUCUAAAACUGAGCGGAUAACCUCUCUAUGG RNA 2: GGGAAUGGAUCCACAUCUACGAAUUCGAGCCAUAGAGAGGUUAUCCGCUCACUAAGAUCGGAAGAGCACACGU | 40 ± 15 nM
7 | target 1 MT 5'PFS GCA 3'PFS CGA (mixed) RNA 1: CACCCGUGCAAAAAUGCAGGGGUCUAAAACUGAGCGGAUAACCUCUCUAUGG RNA 2: GGGAAUGGAUCCACAUCUACGAAUUCGCACCAUAGAGAGGUUAUCCGCUCACGAAGAUCGGAAGAGCACACGU | 41 ± 11 nM
8 | target 1 MT 5'PFS GAG 3'PFS CUG (mixed) RNA 1: CACCCGUGCAAAAAUGCAGGGGUCUAAAACUGAGCGGAUAACCUCUCUAUGG RNA 2: GGGAAUGGAUCCACAUCUACGAAUUCGAGCCAUAGAGAGGUUAUCCGCUCACUGAGAUCGGAAGAGCACACGU | ~23.5 nM
9 | target 1 MT 5'PFS CAG 3'PFS AUC (mixed) RNA 1: CACCCGUGCAAAAAUGCAGGGGUCUAAAACUGAGCGGAUAACCUCUCUAUGG RNA 2: GGGAAUGGAUCCACAUCUACGAAUUCCAGCCAUAGAGAGGUUAUCCGCUCAAUCAGAUCGGAAGAGCACACGU | ~17.5 nM
10 | target 1 MT 5'PFS GCA 3'PFS CGG (mixed) RNA 1: CACCCGUGCAAAAAUGCAGGGGUCUAAAACUGAGCGGAUAACCUCUCUAUGG RNA 2: GGGAAUGGAUCCACAUCUACGAAUUCGCACCAUAGAGAGGUUAUCCGCUCACGGAGAUCGGAAGAGCACACGU | 25 ± 6.5 nM
11 | target 1 MT 5'PFS CAG 3'PFS UCG (mixed) RNA 1: CACCCGUGCAAAAAUGCAGGGGUCUAAAACUGAGCGGAUAACCUCUCUAUGG RNA 2: GGGAAUGGAUCCACAUCUACGAAUUCCAGCCAUAGAGAGGUUAUCCGCUCAUCGAGAUCGGAAGAGCACACGU | 9 ± 1.75 nM
12 | target 1 MT 5'PFS CAG 3'PFS UCC (mixed) RNA 1: CACCCGUGCAAAAAUGCAGGGGUCUAAAACUGAGCGGAUAACCUCUCUAUGG RNA 2: GGGAAUGGAUCCACAUCUACGAAUUCCAGCCAUAGAGAGGUUAUCCGCUCAUCCAGAUCGGAAGAGCACACGU | 11.9 ± 5.25 nM
13 | target 1 insG 3' of 14 (mixed) RNA 1: CACCCGUGCAAAAAUGCAGGGGUCUAAAACUGAGCGGAUAACCUCUCUAUGG RNA 2: GGGAAUGGAUCCACAUCUACGAAUUCGUACCAUAGAGAGGGUUAUCCGCUCACCGAGAUCGGAAGAGCACACGU | 9.4 ± 0.33 nM
